In US20040259198:

Target: T1, recombinant human MAT II β subunit protein with N-terminal poly-His tag, expressed in E. coli from pQE-30 (Clone 5)
T1 chain: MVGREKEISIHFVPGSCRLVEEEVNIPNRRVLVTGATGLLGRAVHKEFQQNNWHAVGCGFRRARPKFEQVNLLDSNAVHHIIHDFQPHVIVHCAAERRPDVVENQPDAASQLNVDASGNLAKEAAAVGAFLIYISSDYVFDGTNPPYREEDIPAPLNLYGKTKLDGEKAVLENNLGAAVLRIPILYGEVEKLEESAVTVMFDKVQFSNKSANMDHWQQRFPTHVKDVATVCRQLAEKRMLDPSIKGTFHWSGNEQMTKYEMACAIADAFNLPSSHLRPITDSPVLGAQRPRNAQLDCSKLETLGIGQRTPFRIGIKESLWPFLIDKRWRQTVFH

B1: endogenous E. coli MAT α subunit (protein)
chain: AKHLFTSESVSEGHPDKIADQISDAVLDAILEQDPKARVACETYVKTGMVLVGGEITTSAWVDIEEITRNTVREIGYVHSDMGFDANSCAVLSAIGKQSPDINQGVDRADPLEQGAGDQGLMFGYATNETDVLMPAPITYAHRLVQRQAEVRKNGTLPWLRPDAKSQVTFQYDDGKIVGIDAVVLSTQHSEEIDQKSLQEAVMEEIIKPILPAEWLTSATKFFINPTGRFVIGGPMGDCGLTGRKIIVDTYGGMARHGGGAFSGKDPSKVDRSAAYAARYVAKNIVAAGLADRCEIQVSYAIGVAEPTSIMVETFGTEKVPSEQLTLLVREFFDLRPYGLIQMLDLLHPIYKETAAYGHFGREHFPWEKTDKAQLLRDAAGLK
  Km of MAT for L-methionine: This association changed the kinetic properties of the enzyme and lowered the Km of MAT for L-methionine
